Experimental data taken from patent US20190185562A1.
Each block holds one substance with its values, some of them ahead of it.

Key:
[1] = molecular target: gp130 expressed endogenously on IMR-32/STAT3-Luc cells (human) (UniProt P40189); assay: cell-based or functional assay
[2] = molecular target: full length human GP130 (leucine at position 2 changed to valine) on HEK293/Stat3-luc/gp130-2X Sort cells (human) (UniProt P40189); assay: FACS, 200 nM antibody, HEK293/gp130 2X Sort cells
[3] = molecular target: extracellular domain of human LEPR, GPI-anchored on HEK293/hLEPR-GPI cells (human) (UniProt P48357); assay: FACS, 200 nM antibody, HEK293/hLEPR-GPI cells, No Leptin
extracellular domain of human LEPR, GPI-anchored on HEK293/hLEPR-GPI cells (human), sequence (P48357 22-839 limits assumed): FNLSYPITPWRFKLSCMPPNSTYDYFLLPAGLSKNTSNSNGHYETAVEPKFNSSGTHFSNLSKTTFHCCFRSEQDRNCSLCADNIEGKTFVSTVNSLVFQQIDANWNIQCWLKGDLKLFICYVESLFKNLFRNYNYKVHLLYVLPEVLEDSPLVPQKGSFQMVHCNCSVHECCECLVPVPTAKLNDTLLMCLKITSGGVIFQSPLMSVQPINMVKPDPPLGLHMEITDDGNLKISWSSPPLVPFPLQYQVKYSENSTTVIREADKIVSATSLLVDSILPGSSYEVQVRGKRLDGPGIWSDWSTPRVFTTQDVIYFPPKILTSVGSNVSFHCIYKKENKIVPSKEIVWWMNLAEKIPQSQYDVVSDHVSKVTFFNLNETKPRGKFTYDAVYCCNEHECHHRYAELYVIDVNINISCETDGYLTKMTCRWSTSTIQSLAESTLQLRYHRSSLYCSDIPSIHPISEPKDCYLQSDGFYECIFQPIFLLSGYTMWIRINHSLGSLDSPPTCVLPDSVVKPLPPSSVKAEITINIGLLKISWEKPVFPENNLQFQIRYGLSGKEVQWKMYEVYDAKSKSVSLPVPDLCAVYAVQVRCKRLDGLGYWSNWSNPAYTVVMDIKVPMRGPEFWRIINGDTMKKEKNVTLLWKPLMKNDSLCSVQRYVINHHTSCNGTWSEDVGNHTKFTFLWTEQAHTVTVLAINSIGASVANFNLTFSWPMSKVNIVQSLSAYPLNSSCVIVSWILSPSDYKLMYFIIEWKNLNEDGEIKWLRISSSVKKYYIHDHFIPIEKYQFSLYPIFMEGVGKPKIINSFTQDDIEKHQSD

[4] = molecular target: extracellular domain of human LEPR, GPI-anchored on HEK293/hLEPR-GPI cells (human) (UniProt P48357); assay: FACS, 200 nM antibody, HEK293/hLEPR-GPI cells, 1 µM Leptin present
[5] = molecular target: gp130 expressed endogenously on IMR-32/STAT3-Luc cells (human) (UniProt P40189); assay: FACS, secondary antibody alone, IMR-32/Stat3-luc cells, 1 uM hGP130.mmh present
[6] = molecular target: full length (FL) human gp130 over-expressed on HEK293/Stat3-luc/gp130-2X Sort cells (human) (UniProt P40189); assay: FACS, secondary antibody alone, 293/Stat3-luc/GP130 2X sort cells
full length (FL) human gp130 over-expressed on HEK293/Stat3-luc/gp130-2X Sort cells (human), sequence (P40189 23-918): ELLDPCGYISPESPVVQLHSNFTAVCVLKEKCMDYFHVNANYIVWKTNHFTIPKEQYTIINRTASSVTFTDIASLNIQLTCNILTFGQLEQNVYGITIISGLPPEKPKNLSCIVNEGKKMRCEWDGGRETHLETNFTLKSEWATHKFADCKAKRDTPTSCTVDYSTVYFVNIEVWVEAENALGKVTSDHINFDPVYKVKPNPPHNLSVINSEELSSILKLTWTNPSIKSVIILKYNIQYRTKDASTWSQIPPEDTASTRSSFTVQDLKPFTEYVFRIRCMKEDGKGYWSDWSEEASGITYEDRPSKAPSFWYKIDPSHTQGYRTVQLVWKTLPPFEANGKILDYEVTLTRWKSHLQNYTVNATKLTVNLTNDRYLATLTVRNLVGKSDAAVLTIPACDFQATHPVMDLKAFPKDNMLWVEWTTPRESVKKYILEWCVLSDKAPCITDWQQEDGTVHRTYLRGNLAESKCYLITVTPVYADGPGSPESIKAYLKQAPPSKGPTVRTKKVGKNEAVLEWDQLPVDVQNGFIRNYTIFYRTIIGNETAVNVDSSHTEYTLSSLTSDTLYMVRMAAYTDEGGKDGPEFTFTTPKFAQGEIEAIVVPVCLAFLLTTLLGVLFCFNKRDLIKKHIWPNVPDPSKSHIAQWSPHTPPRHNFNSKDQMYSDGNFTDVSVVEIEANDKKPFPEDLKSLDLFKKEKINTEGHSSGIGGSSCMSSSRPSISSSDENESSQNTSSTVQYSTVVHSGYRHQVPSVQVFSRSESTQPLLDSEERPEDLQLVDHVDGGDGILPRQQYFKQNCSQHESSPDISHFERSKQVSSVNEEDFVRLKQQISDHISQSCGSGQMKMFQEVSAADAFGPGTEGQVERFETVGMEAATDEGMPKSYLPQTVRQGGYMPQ

[7] = molecular target: gp130 expressed endogenously on IMR-32/STAT3-Luc cells (human) (UniProt P40189); assay: FACS, secondary antibody alone, IMR-32/Stat3-luc cells, no hGP130.mmh
[8] = molecular target: full length human GP130 (leucine at position 2 changed to valine) on HEK293/Stat3-luc/gp130-2X Sort cells (human) (UniProt P40189); assay: FACS, secondary antibody only, HEK293/gp130 2X Sort cells
[9] = molecular target: extracellular domain of human LEPR, GPI-anchored on HEK293/hLEPR-GPI cells (human) (UniProt P48357); assay: FACS, secondary antibody only, HEK293/hLEPR-GPI cells, 1 µM Leptin present
[10] = molecular target: extracellular domain of human LEPR, GPI-anchored on HEK293/hLEPR-GPI cells (human) (UniProt P48357); assay: FACS, secondary antibody only, HEK293/hLEPR-GPI cells, No Leptin

gp130 expressed endogenously on IMR-32/STAT3-Luc cells (human), sequence (P40189 23-918): as above
full length human GP130 (leucine at position 2 changed to valine) on HEK293/Stat3-luc/gp130-2X Sort cells (human), sequence (P40189 23-918): as above

EC50 of activation of IMR-32/STAT3-luc cells (STAT3-luciferase) [1]: 23 pM
Substance: human Leukemia Inhibitory Factor (from UniProt P15018 23-202) (ligand)

Binding Ratio: Normalized to Unstained Sample of Each Cell Line (FL4-A) [2]: 2 | Binding Ratio: Normalized to Unstained Sample of Each Cell Line (FL4-A) [3]: 3 | Binding Ratio: Normalized to Unstained Sample of Each Cell Line (FL4-A) [4]: 3
Substance: Isotype Control (antibody)

MFI - Normalized to Unstained Control [5]: 8 | MFI - Normalized to Unstained Control [6]: 2 | MFI - Normalized to Unstained Control [7]: 4
Substance: a-h 2″ alone (antibody)

Binding Ratio: Normalized to Unstained Sample of Each Cell Line (FL4-A) [8]: 1 | Binding Ratio: Normalized to Unstained Sample of Each Cell Line (FL4-A) [9]: 2 | Binding Ratio: Normalized to Unstained Sample of Each Cell Line (FL4-A) [10]: 3
Substance: Secondary antibody alone
